According to article PMC9814530 (2022):
Where no end group is shown, it is not given here.

The binders below were run against human angiotensin converting enzyme 2 (ACE2), recombinant (human, UniProt Q9BYF1 18-740) (assay: BLI).
Chain of human angiotensin converting enzyme 2 (ACE2), recombinant (Q9BYF1 18-740): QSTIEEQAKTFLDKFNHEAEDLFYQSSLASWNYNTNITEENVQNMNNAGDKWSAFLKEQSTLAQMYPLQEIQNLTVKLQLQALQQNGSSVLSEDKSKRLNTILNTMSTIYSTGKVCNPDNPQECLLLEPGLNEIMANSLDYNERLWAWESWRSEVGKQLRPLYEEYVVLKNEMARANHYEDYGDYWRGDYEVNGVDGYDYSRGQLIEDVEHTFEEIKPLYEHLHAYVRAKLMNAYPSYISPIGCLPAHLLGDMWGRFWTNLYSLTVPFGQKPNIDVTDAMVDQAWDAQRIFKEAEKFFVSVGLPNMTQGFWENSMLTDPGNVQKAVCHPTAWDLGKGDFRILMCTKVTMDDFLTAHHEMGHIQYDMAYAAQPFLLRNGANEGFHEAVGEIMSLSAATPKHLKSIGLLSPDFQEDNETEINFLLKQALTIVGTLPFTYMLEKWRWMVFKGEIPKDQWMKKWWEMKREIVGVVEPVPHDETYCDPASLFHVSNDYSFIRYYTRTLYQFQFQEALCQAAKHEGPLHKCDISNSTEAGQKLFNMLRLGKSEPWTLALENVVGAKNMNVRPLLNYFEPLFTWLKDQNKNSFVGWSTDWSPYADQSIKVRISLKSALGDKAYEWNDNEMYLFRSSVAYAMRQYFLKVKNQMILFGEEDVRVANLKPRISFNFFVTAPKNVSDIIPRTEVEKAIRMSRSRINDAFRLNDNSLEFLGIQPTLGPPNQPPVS
Work on LKVKYMWDYLFGK-NH2 (also: biotinylated, position not given here) [ACE2-binding peptide ABP C4] yielded a Kd of 58 nM. In the case of LHFAKWNHVWSWK-NH2 (also: biotinylated, position not given here) [ACE2-binding peptide ABP C2], the Kd is reported as 57 nM. With LFRGYFAAMNNLK-NH2 (also: biotinylated, position not given here) [ACE2-binding peptide ABP C1] the Kd was 66 nM.
